The subject of this series is Bacillus subtilis DB104 (SP-AmyQ fusion secretion). As to the kind of experiment: AmyQ secretion efficiency, weighted average sort bin (1 = best secretion, 10 = worst) (bin number (weighted average, 1-10)); higher = lower secretion efficiency. An outline of the steps:
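In this assay, the secretion score is defined as the average bin number weighted by read frequency, normalised to beads per bin, with low-abundance sequences not counted. B. subtilis DB104 cells expressing mature AmyQ behind designed signal peptides (amyE-integrated) were enclosed with fluorescein-starch in ~65 nL alginate beads at about 0.3 cells per bead. Beads grew about 13 h at room temperature, were stained with nile red, and occupied beads went into 10 equally populated green/red fluorescence ratio bins by large-particle flow cytometry, whose amplicons were Illumina-sequenced.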

Our source for the AmyQ secretion efficiency values is the supplement of paper PMC9942255.

MKKKIVAGLAVSAVVRRRRAAAPAEAKTI showed an AmyQ secretion efficiency of 7.4. As for MKKKIVALLAVIAVVSGSSMAAAPAEAKTI, the AmyQ secretion efficiency came to 3.11. The figure for MKKKKAAAVLLSLGLVFGFSYGAGHVAEAKTK is 1.65; for MKKKKAGLFLAAAVLLCLMVPQQIQGASS it is 4.01. MKKKKKRIITATTAVVLGSTLFAGAASAQSI displayed an AmyQ secretion efficiency of 1.46.

In turn, MKKKKKRVGLLAGCLAAGGFSYNAFATEN had an AmyQ secretion efficiency of 6.9. Sequence MKKKKMLSMLTVMIASLFIFSSQALAVQY had an AmyQ secretion efficiency of 3.15. In the case of MKKKKRKFVLIVCIIFTSALFPTFSSVTAAQG it was 1.03. MKKKKRRIVSILFMFGLVMGFSQFQPSTVFAADK yielded an AmyQ secretion efficiency of 3.29. In the case of MKKKKRYSQRFLVALTMCGGLFVTPAKAVKT it was 6.94; in that of MKKKKYVVLVLSIAGIGGFSVHAASS, 6.5; in that of MKKKLAAGLTASAIVGTTLVDEPAEAATI, 5.66. The figure for MKKKLAAGLTASAIVGTTLVEDEEDAEAATI is 6.91.

As to MKKKLAAGLTASAIVGTTLVGGGAEAATI, the AmyQ secretion efficiency worked out at 4.73. In the case of MKKKLAAGLTASAIVGTTLVIVTPAEAATI, the AmyQ secretion efficiency turned out to be 3.35. The figure for MKKKLAAGLTASAIVGTTLVRKKKAEAATI is 8.06. The sequence MKKKLAAGLTASAIVGTTLVTTISAVTPAEAATI had an AmyQ secretion efficiency of 2.98. In the case of MKKKLAAGLTASAIVGTTLVVAEAATI it was 5.78. Consider MKKKLAAGLTASAIVGTTLVVFTAEAATI, for which the AmyQ secretion efficiency was 5.8. The figure for MKKKLAAGLTASAIVGTTLVVTPAEAADE is 3.03; for MKKKLAAGLTASAIVGTTLVVTPAEAARK it is 3.53.

For MKKKLAAGLTASAIVGTTLVVTPAEAATD, the AmyQ secretion efficiency is 2.88. In the case of MKKKLAAGLTASAIVGTTLVVTPAEAATR, the AmyQ secretion efficiency was found to be 2.36. In the case of MKKKLAAGLTASAIVGTTLVVTPAEADDD it was 5.01; in that of MKKKLAAGLTASAIVGTTLVVTPAEAKRK, 6.02; in that of MKKKLAAGLTASAIVGTTLVVTPAECATI, 4.47. On to MKKKLAAGLTASAIVGTTLVVTPAEDATI, for which the AmyQ secretion efficiency worked out at 6.33. In the case of MKKKLAAGLTASAIVGTTLVVTPAEEATI it was 6.94; in that of MKKKLAAGLTASAIVGTTLVVTPAEGATI, 3.33; in that of MKKKLAAGLTASAIVGTTLVVTPAEKATI, 7.23. MKKKLAAGLTASAIVGTTLVVTPAELATI came in with an AmyQ secretion efficiency of 5.54. In the case of MKKKLAAGLTASAIVGTTLVVTPAEPATI it was 6.62. In the case of MKKKLAAGLTASAIVGTTLVVTPAERATI it was 5.86; in that of MKKKLAAGLTASAIVGTTLVVTPAESATI, 3.72. In the case of MKKKLAAGLTASAIVGTTLVVTPAETATI it was 5.92. As to MKKKLAAGLTASAIVGTTLVVTPAEVATI, the AmyQ secretion efficiency was 6.56. The figure for MKKKLAAGLTASAIVGTTLVVTPAEWATI is 7.78.

Take MKKKLAAGLTASAIVGTTLVVTPAEYATI: the AmyQ secretion efficiency stood at 6.06. The figure for MKKKLAAGLTASAIVGTTLVVTPCEAATI is 1.75. For MKKKLAAGLTASAIVGTTLVVTPDEAATI, the AmyQ secretion efficiency came to 5.54.

For MKKKLAAGLTASAIVGTTLVVTPEEAATI, the AmyQ secretion efficiency was 5.83. The sequence MKKKLAAGLTASAIVGTTLVVTPFEAATI came in with an AmyQ secretion efficiency of 5.7. For MKKKLAAGLTASAIVGTTLVVTPIEAATI, the AmyQ secretion efficiency was determined as 2.11. For the sequence MKKKLAAGLTASAIVGTTLVVTPKEAATI, the AmyQ secretion efficiency stood at 4.56. In the case of MKKKLAAGLTASAIVGTTLVVTPLEAATI, the AmyQ secretion efficiency came out at 3.17.

As to MKKKLAAGLTASAIVGTTLVVTPNEAATI, the AmyQ secretion efficiency was determined as 6.96.

Sequence MKKKLAAGLTASAIVGTTLVVTPPEAATI returned an AmyQ secretion efficiency of 5.33. The figure for MKKKLAAGLTASAIVGTTLVVTPPTAPGGAEAATI is 6.5; for MKKKLAAGLTASAIVGTTLVVTPQEAATI it is 5.9; for MKKKLAAGLTASAIVGTTLVVTPREAATI it is 6.83. In the case of MKKKLAAGLTASAIVGTTLVVTPSEAATI it was 3.77. As to MKKKLAAGLTASAIVGTTLVVTPTAAEAATI, the AmyQ secretion efficiency turned out to be 2.99. As for MKKKLAAGLTASAIVGTTLVVTPTEAATI, the AmyQ secretion efficiency was 2.75. In the case of MKKKLAAGLTASAIVGTTLVVTPVEAATI it was 2.24; in that of MKKKLAAGLTASAIVGTTLVVTPWEAATI, 6.58; in that of MKKKLAAGLTASAIVGTTLVVTPYEAATI, 5.36. In the case of MKKKLAAGLTASAIVGTTLVVVFAEAATI it was 6.57. MKKKLAAGLTASAIVGTVTPAEAATI had an AmyQ secretion efficiency of 5.84. MKKKLAAGLTASAVTPAEAATI gave an AmyQ secretion efficiency of 6.26.

Take MKKKLKKGLTASAIVGTTLVVTPAEAATI: the AmyQ secretion efficiency came to 5.93. On to MKKKLKRKKRRSAIVGTTLVVTPAEAATI, for which the AmyQ secretion efficiency worked out at 6.61. The figure for MKKKMLNLFLAAGLTASAIVGTTLVVTPAEAATI is 4.26. In the case of MKKKNSISSLNMLAAGLTASAIVGTTLVVTPAEAATI it was 2.17. In the case of MKKKQQHSTRRKLIVLLFFSFFGVQPIHAKKQ it was 5.23.

Consider MKKKQQRLALTAAAGLGLTALHSAPAAKAAPL, for which the AmyQ secretion efficiency came out at 5.39. In the case of MKKKQRAGLTASAIVGTTLVVTPAEAATI it was 6.45; in that of MKKKQVLALTAAAGLGLTALHSAPAAKAAPL, 2.4; in that of MKKKQVMGYTTAAAGLGLTALHSAPAAKAAPL, 7.28. MKKKQVMLALTAAAGLGLTAHSAPAAKAAPL showed an AmyQ secretion efficiency of 2.01.

In turn, MKKKQVMLALTAAAGLGLTALAIVSSFVHSAPAAKAAPL registered an AmyQ secretion efficiency of 5.73. Regarding MKKKQVMLALTAAAGLGLTALGSAPAAKAAPL, the AmyQ secretion efficiency was 2.2. The figure for MKKKQVMLALTAAAGLGLTALHAKAAPL is 2.9; for MKKKQVMLALTAAAGLGLTALHDAPAAKAAPL it is 2.66; for MKKKQVMLALTAAAGLGLTALHKRPAAKAAPL it is 6.71.

Regarding MKKKQVMLALTAAAGLGLTALHPGPSAKAAPL, the AmyQ secretion efficiency turned out to be 1.84. The figure for MKKKQVMLALTAAAGLGLTALHSAPAAKAADD is 3.53; for MKKKQVMLALTAAAGLGLTALHSAPAAKAAPD it is 2.15. The sequence MKKKQVMLALTAAAGLGLTALHSAPAAKAAPK showed an AmyQ secretion efficiency of 1.55. MKKKQVMLALTAAAGLGLTALHSAPAAKADDD: the AmyQ secretion efficiency was determined as 5.2. The figure for MKKKQVMLALTAAAGLGLTALHSAPAAKEAPL is 6.66; for MKKKQVMLALTAAAGLGLTALHSAPAAKGAPL it is 3.51; for MKKKQVMLALTAAAGLGLTALHSAPAAKHAPL it is 4.9. Turning to MKKKQVMLALTAAAGLGLTALHSAPAAKIAPL, the AmyQ secretion efficiency came to 6.05. In the case of MKKKQVMLALTAAAGLGLTALHSAPAAKLAPL it was 4.96; in that of MKKKQVMLALTAAAGLGLTALHSAPAAKPAPL, 4.99; in that of MKKKQVMLALTAAAGLGLTALHSAPAAKQAPL, 4.93.

In turn, MKKKQVMLALTAAAGLGLTALHSAPAAKSAPL displayed an AmyQ secretion efficiency of 3.28.

In turn, MKKKQVMLALTAAAGLGLTALHSAPAAKVAPL registered an AmyQ secretion efficiency of 6.92. The figure for MKKKQVMLALTAAAGLGLTALHSAPACKAAPL is 2.29. As to MKKKQVMLALTAAAGLGLTALHSAPADKAAPL, the AmyQ secretion efficiency was determined as 5.48. Take MKKKQVMLALTAAAGLGLTALHSAPAEKAAPL: the AmyQ secretion efficiency is 6.32.

The sequence MKKKQVMLALTAAAGLGLTALHSAPAFKAAPL displayed an AmyQ secretion efficiency of 6.7.

MKKKQVMLALTAAAGLGLTALHSAPAGKAAPL: the AmyQ secretion efficiency is 5.58. As for MKKKQVMLALTAAAGLGLTALHSAPAHKAAPL, the AmyQ secretion efficiency came out at 6.85. The figure for MKKKQVMLALTAAAGLGLTALHSAPAIKAAPL is 4.18. The figure for MKKKQVMLALTAAAGLGLTALHSAPAKKAAPL is 5.87.

Regarding MKKKQVMLALTAAAGLGLTALHSAPALKAAPL, the AmyQ secretion efficiency amounted to 4.89.

Sequence MKKKQVMLALTAAAGLGLTALHSAPANKAAPL registered an AmyQ secretion efficiency of 5.6. In the case of MKKKQVMLALTAAAGLGLTALHSAPAPKAAPL it was 6.78. For the sequence MKKKQVMLALTAAAGLGLTALHSAPAQKAAPL, the AmyQ secretion efficiency came out at 5.43. As for MKKKQVMLALTAAAGLGLTALHSAPARKAAPL, the AmyQ secretion efficiency came out at 5.26.

The sequence MKKKQVMLALTAAAGLGLTALHSAPASKAAPL displayed an AmyQ secretion efficiency of 4.06.

As to “MKKKQVMLALTAAAGLGLTALHSAPASVVAVAASAKAAPL”, the AmyQ secretion efficiency is 1.02.

MKKKQVMLALTAAAGLGLTALHSAPATKAAPL came in with an AmyQ secretion efficiency of 3.15. The figure for MKKKQVMLALTAAAGLGLTALHSAPAVAGAAKAAPL is 2.43.

As for MKKKQVMLALTAAAGLGLTALHSAPAVKAAPL, the AmyQ secretion efficiency came out at 1.99. In the case of MKKKQVMLALTAAAGLGLTALKHKKKKAKAAPL it was 6.6.
